In the DeepSol protein solubility set:

test: soluble on expression in E. coli; label from the status in PepcDB or PDB records

Q: With “MRLQTVKHFLEPVLEPLIRKVVKEEVELALGKHLAGIKWICEKETHPLESRNLQLKFLNNLSLPVFTSARIEGDEGQAIRVGLIDPSTGQIFSSGPASSAKLEVFVVEGDFNSVSDWTDEDIRNNIVREREGKKPLLNGNVFAVLNDGIGVMDEISFTDNSSWTRSRKFRLGVRIVDQFDYVKIREAITESFVVRDHRGELYKKHHPPSLFDEVWRLEKIGKDGAFHRRLNLSNINTVKDFLTHFHLNSSKLRQVLGTGMSSKMWEITLDHARSCVLDSSVHVYQAPGFQKKTAVVFNVVAQVLGLLVDFQYIPAEKLSEIEKALILSVYIFDLAQAEVMVIDALSHLNEVISYDDEVSMMRNVLNAPASQGSVAGIDYSGLSLTSLDGYGFVSSLHNTAECSGKHSDDVDMEVTPHGLYEDYDNLWNCSHILGLEEPQSELQSALDDFMSQKNASVGGKAHSKRWTKLFSVSRWLSVFKYVKLGKI” as the sequence, how does the “soluble on expression in E. coli” value read?
A: soluble

Q: Which “soluble on expression in E. coli” value does the source give for “MRMAQVVLENVTKVYENKVVAVKNANLVVEDKEFVVLLGPSGCGKTTTLRMIAGLEEITDGKIYIDGKVVNDVEPKDRDIAMVFQNYALYPHMTVYENMAFGLKLRKYPKDEIDRRVREAAKILGIENLLDRKPRQLSGGQRQRVAVGRAIVRNPKVFLFDEPLSNLDAKLRVQMRSELKKLHHRLQATIIYVTHDQVEAMTMADKIVVMKDGEIQQIGTPHEIYNSPANVFVAGFIGSPPMNFVNARVVRGEGGLWIQASGFKVKVPKEFEDKLANYIDKEIIFGIRPEDIYDKLFALAPSPENTITGVVDVVEPLGSETILHVKVGDDLIVASVNPRTQAKEEQKIDLVLDMTRMHAFDKETEKAII” here?
A: soluble

Q: Which “soluble on expression in E. coli” value does the source give for “MRMDLSRIRNFSIIAHVDHGKSTLADRILELTHAVSDREMREQFLDSLELERERGITIKASAVRVTYRAKDGEEYVFHLIDTPGHVDFTYEVSRALAAVEGVLLVVDASQGVEAETLAKFYMALEHGHVIIPVINKIDLPNARPLEVALEVEEVLGLPADEAIFASGKTGEGVEEILEAIVQRIPPPKGDPEAPLKALIFDSVYDAYQGVIPYLRLFEGRVRPGDRIRIYSTGKEFTVDKVGVFTPQGLVATEALEAGEVGWLVAAIRDIHDVQVGDTITLADRPTPSPYPGFRPAKPVVFAGLYPVDSGDYGKLRDALEKLKLNDAALTFEPESSTALGFGFRCGFLGLLHAEIVQERLEREFGLSLIATAPSVVYKVRLKSGEEVEVHNPADLPDPTRIEEILEPYVKLTIFTPEEYVGSLMQLLQEKRGRLVNMNYLPGAQKRVELVYEAPFAEILYDFHDRLKSVSRGYASMDYEQAGYRPGDLVKVNVLVHGEVVDALTFIAHREKAYTMARAIVDKLAEVIPRQLFEVPIQAAIGGKIIARATVKALRKDVLAKCYGGDVTRKKKLLEKQKEGKKRLKAIGKVEVPQEAFLAVLSAGRDEPKG” here?
A: soluble

Q: Which “soluble on expression in E. coli” value does the source give for “MRMIVGHGIDIEELASIESAVTRHEGFAKRVLTALEMERFTSLKGRRQIEYLAGRWSAKEAFSKAMGTGISKLGFQDLEVLNNERGAPYFSQAPFSGKIWLSISHTDQFVTASVILEENHES” here?
A: soluble

Q: For “MRNFANYHVDVRRHTSGVVKTICEQCLPTRHNKRDRSLRVNIDTGHCHCYHCGADFYVPDDAEERAKAERQAARKRRAASAVPQHFHRPVFDASKTTLSEATERWLVETRCIPQSVIAGLRITEQEEFMSQSGTKERCVCFNYFEDGKLVNTKFRSGAKNFKMVQGAELIPYNIDSVLGQDTCIIHEGELDAASSLATGFKSVISVPAGANANLSWLDRFMESHFENLKDIIIAVDTDSAGLKLRDELVNRLGAERCRVAVYGPGCKDANEHLVKYGIDSLRIAIEQAEEIPLEGIFTAADLHEDLRALFDNGFGPGAETGWEEMDKICTYERRRLVIVTGIPGAGKSEWLDELVLRLCMRHQWKIAFFSPENNPIVYHLRKLIEKLTGRRFQNGCGMTEGLLLRSEEFLAENVCHIALKGSATPERVLAKARELVLRRGCRIFVFDPVNRFEHTPAPGQSETQYLSNFLNLFTEFATQYNCLVILVAHPRKMNRNPVTNHTPRPDMYDVNGSADFFNKADYGLVVERDKEVGVTRVYVEKVKFKHLGTGGVATFVYDPVSGRYLPCEESQDPSVPPEQRVRNTVNDSSCWLPEKELFE”, which “soluble on expression in E. coli” value is on record?
A: not soluble

Q: With “MRNKVLIVLAVIAGALILKSCGEPYSGAKETVGEFMEEIAEGEGRDAIKYLYPAYRDELAKNFKLPVQFTEMKPSEVLACVLSTMGRNIDEVEIKKAIAVNPNTANVVVKVEDKEGIEKFFSFTVVKEGDKWYIAKIEKYIPQVGR” as the sequence, how does the “soluble on expression in E. coli” value read?
A: not soluble

Q: For “MRPESMTDGVPGSDSPAAAAAAASVTTSLHDLQVLVERGTLSGPEKQQADHLVTSLKRELVLRRVGDHLAERTFHELCVRLAVMERDWAAMERHIQQLMPLYELDRQAGIQSPHRDLLVGLNLMRLLAQNRLAEYHMELELLPTTEPQQNPYVLFPFQVEQALTEGSYQKILHIEAGAEWLPFIELLRETTIQEMVTSWAEAYAHVTLEELASMAALPVEQVPALLARVLDCTQYVVQNETVHFIASDHIREAPSQYLLAKEAVSRTMEYIRGLERIV”, which “soluble on expression in E. coli” value is on record?
A: soluble

Q: For “MRPLSLKGHERALTRVRFNREGDLTFSCAKDKKPCVWYTENGERIGSYDGHNGAVWDIDVSWDTTKCVTASGDLTVKIWDAELGNCLYTINHQTPMKSCGFSYSGNLVCFTTQKMTKNLSTFQVRDLRDSSQMVEGGESFFYSQFDVNATTALFTQMDDLVTIGFESGLLQQYDLRNPDTPIHTNESVHRYSVQDLQLSPRGDFLISASRDKTAALLDVNDLKKLKQYKSERPVNSACISPNRDHICLGGGEDAMQVTQTSVSAGHFEAKIYHMVFEEEFARFKGHFGPINTMAWHPSGTIIATGGEDGYIRIQEFDEDYLGFTYDF”, which “soluble on expression in E. coli” value is on record?
A: not soluble

Q: With “MRPMPTDDINSRIAELEADNRRLRQLLDKRDAPGELRHRLRSTVAMLRTIIRKSASKRHSLDTYVGHLEDRLDALMRAQAIADEQGAIDFHKLLADELLHYQARDGERVTFAGPDLHLQARAGQVLALAVHELAVNAVEHGALGGDGTIDIRWSVAGAGPAPLLTFVWKETDTAPVAEPSHHGFGTEVLTRTLEYELKAKTDLAFEPDGLRCTIRFPLSERVDGSQAG” as the sequence, how does the “soluble on expression in E. coli” value read?
A: not soluble

Q: Which “soluble on expression in E. coli” value does the source give for “MRPTITALVLTYNGERLLDRCLGSLAFCDRILVVDSFSTDATVAIAQAAGAEVLQRKWEGPGPQFAFALEKISDGWIVSLDQDEICSEELRDSILAATAADSGEAGYWIPRRSWYFDRFLKHSGWYPDHLLRLFRAGRMRVEVSGAHYSFHPDGETGTLTGDILHYPYESFRQHLDKVNDYAQKGADDLRAKGKRGGLCAGLCHGAGRFIRIYIIKRGFLDGRAGFINAIHGAFYAFLKHLRIEEGDWGRPFEHKLEHHHHHH” here?
A: soluble

Q: For “MRPVFPLILSAVLFLSCFFGARQTEASASKRAIDANQIVNRMSLDEKLGQMLMPDFRNWQKEGESSPQALTKMNDEVASLVKKYQFGGIILFAENVKTTKQTVQLTDDYQKASPKIPLMLSIDQEGGIVTRLGEGTNFPGNMALGAARSRINAYQTGSIIGKELSALGINTDFSPVVDINNNPDNPVIGVRSFSSNRELTSRLGLYTMKGLQRQDIASALKHFPGHGDTDVDSHYGLPLVSHGQERLREVELYPFQKAIDAGADMVMTAHVQFPAFDDTTYKSKLDGSDILVPATLSKKVMTGLLRQEMGFNGVIVTDALNMKAIADHFGQEEAVVMAVKAGVDIALMPASVTSLKEEQKFARVIQALKEAVKNGDIPEQQINNSVERIISLKIKRGMYPARNSDSTKEKIAKAKKIVGSKQHLKAEKKLAEKAVTVLKNEQHTLPFKPKKGSRILIVAPYEEQTASIEQTIHDLIKRKKIKPVSLSKMNFASQVFKTEHEKQVKEADYIITGSYVVKNDPVVNDGVIDDTISDSSKWATVFPRAVMKAALQHNKPFVLMSLRNPYDAANFEEAKALIAVYGFKGYANGRYLQPNIPAGVMAIFGQAKPKGTLPVDIPSVTKPGNTLYPLGYGLNIKTGRPL”, which “soluble on expression in E. coli” value is on record?
A: soluble

Q: Which “soluble on expression in E. coli” value does the source give for “MRQHKTKYLHQYELQALLNELNLNNEVNWDYFILLIAKTGIRFAEALGVTPDDFDFAHQTLSISKTWDYKSNKSDFAPTKNNSSVRKVPLDWQTVIQFSQLTKKLPEDQPIFVQAKVYNDTVNHYLERLCKHASIPVISVHGLRHTHASLLLYAGVSIASVARRLGHSNMTTTQQTYLHIIQELENQDNDKVMKHLASLILEHHHHHH” here?
A: soluble
